# Laboratory results from the supplement of paper PMC12042874.
# ± gives the uncertainty stated by the source.
# Assay: amyloid nucleation score (Sup35N fusion, yeast selection) (log enrichment); library NNK3; higher = more nucleation; inactive = no reads after selection
# Outline: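 After 24 hours of induction with 100 μM copper sulfate, psi-negative yeast expressing peptides of 20 random codons fused to Sup35N were grown for 7 days at 30°C on medium lacking adenine and uracil. Input and output plasmid inserts were sequenced with Illumina, and sequences with under 100 input reads were discarded. Scores for nucleation are the DiMSum log enrichment of output over input reads, centred on the mode score of non-aggregating sequences.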
row,Substance,amyloid nucleation score
1,FCRLWVRVSSDTFYYSFSGN,0.537 ± 0.47
2,FCRSVLTLKKKLMFYTLRHC,inactive
3,FCSFEVRGCY,0.346 ± 0.2
4,FCSVIFLISIYCTRFSLVYD,inactive
5,FCVPKCYSHWYLVFS,1.03 ± 0.12
6,FDACRFHVHLRYLFNNRYMG,inactive
7,FDAFM,inactive
8,FDDATEKFIS,inactive
9,FDFASFGKWVVVRFKCKTFT,inactive
10,FDFTGYLKCLKCTSSCTMVL,inactive
11,FDHPFICIKPRATRREAWLT,inactive
12,FDLETSLL,inactive
13,FDLVNWYFQRNIVLRQSCCY,inactive
14,FDMTL,inactive
15,FDPYFVFHNWVLYWFRVFTF,inactive
16,FDSKVWSAQRVRSTRLLSLG,inactive
17,FDTWFLRFRTNDVYLKVFFY,inactive
18,FDVKDWPSNNWRSLGNSRVC,inactive
19,FDVRDRSRIGLSMTITWMKI,inactive
20,FDYSIGL,inactive
21,FEERHCGANWFGSYVIGRWR,0.798 ± 0.21
22,FEFYTMWSIWARVLFPLKIY,inactive
23,FELTVLSSMVAIFL,1.61 ± 0.089

row,Substance,amyloid nucleation score
1,FENSLFYTKVMDPCSFVWYW,inactive
2,FESSGAGRFRSIWYGYMRVF,inactive
3,FEVIFYSGYAYLACPRRQCH,inactive
4,FFFVDMYWSDCLKDLLL,inactive
5,FFKICFRAKYIGNLSPLLK,inactive
6,FFLAGLFCAISV,inactive
7,FFLNLKDMFDHAL,inactive
8,FFLYLSKRLCVFCRCTYLGL,inactive
9,FFNKREKDVFSNHRQYGYWN,inactive
10,FFPFPKFWAGIVIAFY,inactive
11,FFRRSRYEYKSFGVNNVMNG,inactive
12,FFSAPMNEVKTGTILKGFVC,inactive
13,FFSASQRVAY,inactive
14,FFVIRLNPTSLNCVFSWYLL,inactive
15,FFVSDKLVFSNTLLQKNKSP,0.881 ± 0.19
16,FFVVC,inactive
17,FFWECYRQINCSINW,inactive
18,FGAAFQNYVKFPVPKMFTCH,inactive
19,FGADSDQHLRRLLGAEGWCR,inactive
20,FGANHKQVSWWDRMLSGTVR,inactive
21,FGEFKDCQGFSKF,inactive
22,FGEYVIRMSNCTLPKIMVIP,inactive
23,FGFFWP,inactive

row,Substance,amyloid nucleation score
1,FGQYWKRCTTCLCGWPTGIG,inactive
2,FGRYPMYIASLITNSKVFGC,-0.709 ± 0.41
3,FGSGRVSQLVRYDSFLEEFL,inactive
4,FGSPYWLAYIV,inactive
5,FGTDDEDVKCNVMTALCRIW,inactive
6,FGTLSQVHIH,inactive
7,FGTSSEF,inactive
8,FGVCSLFESCIVSFNIVRRL,inactive
9,FGVQVWLMLFLGNVYIWMVM,inactive
10,FGVVDYARRSWGYGSCGGHV,inactive
11,FHIGLSITVT,inactive
12,FHLYNVW,inactive
13,FHWYFLCLAFLG,0.398 ± 0.3
14,FICERMRRIVESNVDLLGFY,-0.359 ± 0.32
15,FICILIISKGSIVPFFLRHR,inactive
16,FIGQGTNWYPYSVGANVSHH,-0.241 ± 0.8
17,FILRLVEVSNFCTRYRNAYS,inactive
18,FILSAGSLHQLGRLVES,inactive
19,FIMMRIMSFPISHVCV,0.708 ± 0.27
20,FIRARLLRHHTLARNAYVLR,inactive
21,FISDRGGLVRMNYPPRHW,inactive
22,FISGVYMKCIGCSS,inactive
23,FISINTPPCLCMS,inactive

row,Substance,amyloid nucleation score
1,FITTCRILWVRCTGIVNDFL,inactive
2,FIWTFK,1.35 ± 0.092
3,FIYAC,inactive
4,FKAMLD,inactive
5,FKIEDQYNLMHRVFLVSNGG,inactive
6,FKIMD,inactive
7,FKKSLYVLSDFSVLYSMCSW,inactive
8,FKSLHTGVQRNTLCARSRTF,inactive
9,FKVAH,inactive
10,FKVNGFSATILIFKQV,inactive
11,FKWQEW,-0.943 ± 1.3
12,FLERISFYIKLVSRSYGGTS,inactive
13,FLFFTEAGYM,inactive
14,FLFWILDALLLQVFQLSPHK,inactive
15,FLHPLSLDSNFLNSVCHFKK,inactive
16,FLIIDAVLEPVGLLFFTKFS,inactive
17,FLIPQGERSVLCMGCYFLYA,1.85 ± 0.098
18,FLLCHYCFFVDTPGRIFYYS,0.724 ± 0.18
19,FLLFFAKWCLY,inactive
20,FLLNQIIGQLKHHLFVVSVN,inactive
21,FLMKLWM,1.66 ± 0.08
22,FLMRCISLGGTGANFLLELS,inactive
23,FLPQFDYVQIMVPCYCLEVV,inactive

row,Substance,amyloid nucleation score
1,FLRFSAVDVSNGGNSMLL,inactive
2,FLTHVHQINADAFYAIL,1.84 ± 0.11
3,FLVGPPNL,inactive
4,FLYRDSSCRLSLM,inactive
5,FLYYIPWDYL,inactive
6,FMFLVFDC,inactive
7,FMGTGHSFGSQNPVSLILKS,inactive
8,FMGVT,inactive
9,FMHPADVEHGTREYLNVTGG,inactive
10,FMKILQVTDWDPGSVYNSSN,inactive
11,FMNCWQRAGVRSLGVYGNSA,0.13 ± 0.45
12,FMNKLGDFNLP,inactive
13,FMSFLICNRILWSGG,inactive
14,FMTVQLLH,1.85 ± 0.1
15,FMYILWRVSKKLFIALMWFR,inactive
16,FNFNILTIWIDLLAQLGMT,1.85 ± 0.1
17,FNGRLVLHHRTVI,inactive
18,FNHPNQGVCIHCISGKGWTR,inactive
19,FNLGRVMFLRSLRWCQGLLV,inactive
20,FNQAHSVTTDREAYRGRCQG,inactive
21,FNSYGKLWYFESKDRVYACD,-0.462 ± 1.4
22,FNTIAIDTSLVGSNYAGATK,inactive
23,FNVFLSLATGISDGYYMLTA,inactive

row,Substance,amyloid nucleation score
1,FPDIDLLLLWTHQRDRRSWF,0.018 ± 0.45
2,FPGNLSLNGVIHMFLYDKLW,inactive
3,FPRHCKPRCL,inactive
4,FQGSNCP,inactive
5,FQIWCIFYLNMS,2 ± 0.095
6,FQKLEVNKLGIIWNHVLTRK,inactive
7,FQNHVSASKVVWHRFNRRKD,inactive
8,FQPMV,inactive
9,FQVYFLSVYACRCLMARLGS,inactive
10,FRESFLSSYVEYMTLGPGSN,-0.342 ± 0.87
11,FRFSGWLCWSTALPILVRKD,inactive
12,FRHFRSLLSVFLVYRFQLSV,inactive
13,FRIFVRRVI,2.33 ± 0.084
14,FRKETNSSHGLMKWAKEQ,inactive
15,FRLKY,0.12 ± 0.68
16,FRMPDGELSGT,inactive
17,FRMQGLKVREA,inactive
18,FRRLSFMVVFGERKGVVSLG,inactive
19,FRSVSLWSSN,inactive
20,FRVEFTVMFLGVCTYSGDAL,-0.329 ± 0.65
21,FRYVREAGIGIVG,inactive
22,FSACS,inactive
23,FSDCQLESGCCHRSRDLIGL,inactive

row,Substance,amyloid nucleation score
1,FSFNQWDLLKMSIGCFKRCK,inactive
2,FSFTIDAYRHRTTSVLMRMS,inactive
3,FSGRMVFNPPIISCSYSWSW,inactive
4,FSHHIDTFV,inactive
5,FSIFSVFEPWMISKFCP,inactive
6,FSITVFFVNIAATSKPYLDK,inactive
7,FSIWKV,inactive
8,FSLFFLCIFFDNRTKFMCLA,inactive
9,FSLLPKCLSLSGDRNGFKMC,inactive
10,FSMVCSFKWL,inactive
11,FSNLYLVMTNCPSRDPPVYT,inactive
12,FSPFNAENSETVTCTGCSHC,inactive
13,FSPFYCHILLH,inactive
14,FSRPLPTPESYRW,-0.287 ± 1.3
15,FSSMQDWSFGIYLNSEAPPT,inactive
16,FSTFRLSRLCHRDRRSHARQ,inactive
17,FSTQRLNG,inactive
18,FSVGEFCR,inactive
19,FSVGFYFIYMTLKCGSCVQW,-0.362 ± 1.1
20,FSVPLVCDIYCLYTDVEYRH,2.53 ± 0.059
21,FSWFHRRSYSVVTSLCLMGR,inactive
22,FSWMC,inactive
23,FTCFNGQLVMA,inactive
